According to US20190315859A1 (EUREKA THERAPEUTICS, published 2019):

T1: Recombinant human CD19 ECD-Fc fusion protein (human, UniProt P15391 20-291, biotinylated for the Octet assay (sites not given); not biotinylated when coated for ELISA)
T1 construct: domain: Fc of human IgG1 lacking the CH1 domain and including the hinge region; also called human CD19-Fc; hCD19 ECD-Fc; not shown: Fc of human IgG1 lacking the CH1 domain and including the hinge region
T1 sequence: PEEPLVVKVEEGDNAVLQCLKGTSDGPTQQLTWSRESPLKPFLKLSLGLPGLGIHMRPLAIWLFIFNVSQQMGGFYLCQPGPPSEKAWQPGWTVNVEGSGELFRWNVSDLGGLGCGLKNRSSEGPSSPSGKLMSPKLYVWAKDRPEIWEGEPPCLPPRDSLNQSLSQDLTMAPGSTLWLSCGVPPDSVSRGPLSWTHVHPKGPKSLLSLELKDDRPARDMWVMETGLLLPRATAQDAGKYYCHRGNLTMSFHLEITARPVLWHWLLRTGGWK

T2: human CD19 expressed on the cell surface (native format) (human, UniProt P15391 20-488)
T2 construct: Endogenous on Raji, Jeko-1 and primary human B cells (CD20+CD3- gate); transduced into NIH/3T3 (3T3-CD19); also called hCD19; cell-surface human CD19
T2 sequence: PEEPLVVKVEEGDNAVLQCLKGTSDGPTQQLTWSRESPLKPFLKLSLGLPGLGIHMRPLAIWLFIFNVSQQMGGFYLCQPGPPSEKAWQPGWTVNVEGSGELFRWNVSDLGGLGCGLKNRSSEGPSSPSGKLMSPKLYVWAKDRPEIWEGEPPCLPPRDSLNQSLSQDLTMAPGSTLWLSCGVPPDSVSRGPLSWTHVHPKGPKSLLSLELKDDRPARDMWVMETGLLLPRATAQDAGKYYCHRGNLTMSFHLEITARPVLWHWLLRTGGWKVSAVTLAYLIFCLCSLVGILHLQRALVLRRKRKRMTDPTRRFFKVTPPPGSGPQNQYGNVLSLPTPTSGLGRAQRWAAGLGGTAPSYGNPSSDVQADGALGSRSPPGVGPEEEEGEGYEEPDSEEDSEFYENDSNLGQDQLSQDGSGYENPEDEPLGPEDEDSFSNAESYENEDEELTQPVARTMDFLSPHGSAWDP

B1: 9 (scFv)
scFv (VL-linker-VH), shown on M13 phage: QTVVTQEPSVSAAPGQKVTISCSGSSSNIGNNYVSWYQQLPGTAPKLLIYDNNKRPSGIPDRFSGSKSGTSATLGITGLQTGDEADYYCGTWDSSLSAGVFGTGTKLTVLGSRGGGGSGGGGSGGGGSLEMAQVQLVETGGGLVQPGGSLRLSCAASGFTFSSYAMSWVRQAPGKGLEWVSAISGSGGSTYYADSVKGRFTISRDNSKNTLYLQMNSLRAEDTAVYYCARYYYSRLDYWGQGTLVTVSS
notes: hit from protein screening (ELISA); also called clone 9; anti-human CD19 scFv phage clone 9
B2: 23 (scFv)
scFv (VL-linker-VH), shown on M13 phage: QSVLTQPPSVSAAPGQKVTISCSGSSSNIGNNYVSWYRQLPGTAPKLLIYENNKRPSGIPDRFSGSKSGTSATLGITGLQTGDEADYYCGTWDSSLRAGVFGTGTKVTVLGSRGGGGSGGGGSGGGGSLEMAQVQLVESGGGLVQPGGSLRLSCAASGFTFSSYAMSWVRQAPGKGLEWVSGISASGGSTYYADSVKGRFTISRDNSKNTLYLQMNSLRAEDTAVYYCARYYLSQIDSWGQGTLVTVSS
notes: hit from protein screening (ELISA); also called clone 23; anti-human CD19 scFv phage clone 23
B3: 36 (scFv)
scFv (VL-linker-VH), shown on M13 phage: DIQLTQSPSSLSAYVGDRVTITCRASQGITNSLAWYQQKPGKAPKLLLHAASRLESGVPSRFSGSGFGTDFTLTISSLQPEDFAVYYCQHYLGTPYSFGQGTKVEIKRSRGGGGSGGGGSGGGGSLEMAEVQLVESGGGLVQPGGSLRLSCAASGFTVSSNYMSWVRQAPGKGLEWVSAISGSGGSTYYADSVKGRFTISRDNSKNTLYLQMNSLRAEDTAVYYCARMNIDYWGQGTLVTVSS
notes: hit from protein screening (ELISA); also called clone 36; anti-human CD19 scFv phage clone 36
B4: 43 (scFv)
scFv (VL-linker-VH), shown on M13 phage: SYELTQPPSASGTPGQRVTISCSGSSSNIGSNYVYWYQQLPGTAPKLLIYRNNQRPSGVPDRFSGSKSGTSASLAISGLRSEDEADYYCAAWDDSLSGYVFGTGTKVTVLGSRGGGGSGGGGSGGGGSLEMAEVQLVESGGGLIQPGGSLRLSCAASGFTVSSNYMSWVRQAPGKGLEWVSVIYSGGSTYYADSVKGRFTISRDNSKNTLYLQMNSLRAEDTAVYYCARGGFGAEFDYWGQGTLVTVSS
notes: hit from protein screening (ELISA); also called clone 43; anti-human CD19 scFv phage clone 43
B5: 54 (scFv)
scFv (VL-linker-VH), shown on M13 phage: SYVLTQPPSVSVSPGQTASITCSGDKLGDKYASWYQQKPGQSPVLVIYQDNKRPSGIPERFSGSNSGNTATLTISGTQAMDEADYYCQAWDSSTEDVFGPGTKVTVLGSRGGGGSGGGGSGGGGSLEMAEVQLVESGGGLIQPGGSLRLSCAASGFTVSSNYMSWVRQAPGKGLEWVSVIYSGGSTYYADSVKGRFTISRDNSKNTLYLQMNSLRAEDTAVYYCARGGISDDYYGSGSYDNWGQGTLVTVSS
notes: hit from protein screening (ELISA); also called clone 54; anti-human CD19 scFv phage clone 54
B6: 40 (scFv)
scFv (VL-linker-VH), shown on M13 phage: EIVMTQSPLSLSVTPGEPASISCRSSQSLLDSNGFNSLDWYLQKPGQSPQLLIHLGSDRASGVPDRFSGSGSGTDFTLKISRVEAEDVGIYYCMQSLQIPTFGQGTKVEIKRSRGGGGSGGGGSGGGGSLEMAQMQLVQSGAEVKKAGSSVKVSCETSGGTFSSSSVNWVRQAPGQGLEWMGGIIPIVGTPNYAQKFQDRVTITAVESTFTAYMELSGLRSEDTAVYYCARGGYRDYMDVWGRGTTVTVSS
notes: hit from protein screening (ELISA); also called clone 40; anti-human CD19 scFv phage clone 40

What follows are binders tested against T1, Recombinant human CD19 ECD-Fc fusion … (assay: ELISA, plate coated with human CD19 ECD-Fc, phage clone detected with HRP-conjugated anti-M13 antibody, OD450).
Procedure: Individual phage clones from enriched phage display panning pools were incubated in the coated plates. Binding of the phage clones was detected by HRP-conjugated anti-M13 antibodies and developed using HRP substrate. The absorbance was read at 450 nm.

| Binder | binding result |
| --- | --- |
| B1 | binds |
| B2 | binds |
| B3 | binds |
| B4 | binds |
| B5 | binds |

What follows are binders tested against T2, human CD19 expressed on the cell … (assay: flow cytometry, phage clone then mouse anti-M13 antibody then R-PE anti-mouse IgG; CD19+ Raji and 3T3-CD19, CD19- Jurkat and 3T3; MFI).
Procedure: ELISA-positive phage clones were then tested for cell-surface human CD19 binding by flow cytometry using human CD19-positive Raji and 3T3-hCD19 cell lines, and human CD19 negative Jurkat and 3T3 cell lines (FIG. 1B). Cells were first stained with purified scFv phage clones, followed by mixing with a mouse anti-M13 monoclonal antibody, and finally a R-PE conjugated horse anti-mouse IgG (Vector Labs). Each step of staining was performed between 30-60 minutes on ice and cells were washed twice between stainings. One unique clone, 37, was identified to specifically bound human CD19⁺ Raji and 3T3-CD19 cells and not hCD19⁻ Jurkat and 3T3 (FIG. 1B).

| Binder | binding result |
| --- | --- |
| B6 | no binding |
